The values that follow come from US20210380703A1 (RIGEL PHARMACEUTICALS, published 2021).

One assay addresses mouse ACVR2A (mouse, UniProt P27038 20-135, limits assumed). In words: ELISA. The method, boiled down:
(§1)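 Binding signal was read by ELISA after ACVR2A-specific monoclonal antibodies were tested against human ACVR2A and mouse ACVR2A, with human Fc as the negative control.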

Another assay deals with T1, human ACVR2A (human, UniProt P27037 20-135, limits assumed).
T1 construct: also called activin receptor, type II A
T1 sequence (P27037 20-135 limits assumed): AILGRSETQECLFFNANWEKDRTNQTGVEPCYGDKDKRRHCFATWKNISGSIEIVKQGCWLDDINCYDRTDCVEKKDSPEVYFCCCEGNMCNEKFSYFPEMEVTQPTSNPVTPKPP
In words: ELISA. A digest of the protocol: as §1

Assay [1] concerns the target T2, biotinylated goat anti-human kappa light chain.
T2 construct: positive control of the ELISA
In words: ELISA, positive control. The method, boiled down:
as §1
Further: test concentration or dose not given here.

mouse ACVR2A, sequence (P27038 20-135 limits assumed): as the sequence (P27037 20-135 limits assumed) above, with K20R, V73I counted along it

B1: 370_E12 (antibody, V domains shown)
VH: EVQLLESGGGLVQPGGSLRLSCAASGFTFDSYGMHWVRQAPGKGLEWVAGINYNGGYTSYADSVKGRFTISRDNSKNTLYLQMNSLRAEDTAVYYCARAATWHDTHLDYWGQGTLVTVSS
VL: DIQMTQSPSSLSASVGDRVTITCRASQSILSYVNWYQQKPGKAPKLLIYAATSRASGVPSRFSGSGSGTDFTLTISSLQPEDFATYYCQQSYENPLTFGGGTKVEIK
notes: Group II
As to B1, the optical density was found to be 3.44 OD in the assay with mouse ACVR2A, 3.39 OD in the assay with human ACVR2A and 3.66 OD in assay [1].

B2: 371_B11 (antibody, V domains shown)
VH: EVQLLESGGGLVQPGGSLRLSCAASGFTFSSYSMHWVRQAPGKGLEWVASINYNSGYTSYADSVKGRFTISRDNSKNTLYLQMNSLRAEDTAVYYCARAATWHDTHLDYWGQGTLVTVSS
VL: DIQMTQSPSSLSASVGDRVTITCRASQSILTYLNWYQQKPGKAPKLLIYAATSRASGVPSRFSGSGSGTDFTLTISSLQPEDFATYYCQQSYELPLTFGGGTKVEIK
notes: Group II
Regarding B2, the optical density turned out to be 3.26 OD with mouse ACVR2A, 3.18 OD in the assay with human ACVR2A and 3.59 OD in assay [1].

B3: 370_G04 (antibody, V domains shown)
VH: EVQLLESGGGLVQPGGSLRLSCAASGFTFSSYGMHWVRQAPGKGLEWVSGINYNGGYTGYADSVKGRFTISRDNSKNTLYLQMNSLRAEDTAVYYCARAANWHDTALDYWGQGTLVTVSS
VL: DIQMTQSPSSLSASVGDRVTITCRASQSILSYVNWYQQKPGKAPKLLIYAATSRASGVPSRFSGSGSGTDFTLTISSLQPEDFATYYCQQSYSTPLTFGGGTKVEIK
notes: Group I
For B3, the optical density with mouse ACVR2A came to 2.12 OD; with human ACVR2A, 1.82 OD; in assay [1] it was 3.51 OD.

B4: 371_D12 (antibody, V domains shown)
VH: EVQLLESGGGLVQPGGSLRLSCAASGFTFDSYGMNWVRQAPGKGLEWVSGINYNGGYKSYADSVKGRFTISRDNSKNTLYLQMNSLRAEDTAVYYCARAANWHDTALDYWGQGTLVTVSS
VL: DIQMTQSPSSLSASVGDRVTITCRASQSILSYLNWYQQKPGKAPKLLIYAATSRASGVPSRFSGSGSGTDFTLTISSLQPEDFATYYCQQSYELPLTFGGGTKVEIK
notes: Group I
Take B4: the values for the optical density (with mouse ACVR2A; with human ACVR2A; in assay [1]) were 2 OD, 1.89 OD and 3.44 OD, respectively.

B5: 370_H05 (antibody, V domains shown)
VH: EVQLLESGGGLVQPGGSLRLSCAASGFTFSSYGMHWVRQAPGKGLEWVSNINYNGGYTSYADSVKGRFTISRDNSKNTLYLQMNSLRAEDTAVYYCARAATWHDTHLDYWGQGTLVTVSS
VL: DIQMTQSPSSLSASVGDRVTITCRASQSILSYLNWYQQKPGKAPKLLIYAASSLQSGVPSRFSGSGSGTDFTLTISSLQPEDFATYYCQQSDSLPLTFGGGTKVEIK
notes: Group II
For B5, the optical density stood at 3.14 OD in the assay with mouse ACVR2A, 2.94 OD with human ACVR2A and 3.61 OD in assay [1].

B6: 371_A09 (antibody, V domains shown)
VH: EVQLLESGGGLVQPGGSLRLSCAASGFTFSSYGMNWVRQAPGKGLEWVSGINYNGGYKSYADSVKGRFTISRDNSKNTLYLQMNSLRAEDTAVYYCARAANWHDTALDYWGQGTLVTVSS
VL: DIQMTQSPSSLSASVGDRVTITCRASQSIVTYVNWYQQKPGKAPKLVIYAATSRASGVPSRFSGSGSGTDFTLTISSLQPEDFATYYCQQSYDSPLTFGGGTKVEIK
notes: Group I
As to B6, the values for the optical density (with mouse ACVR2A; with human ACVR2A; in assay [1]) were 2 OD, 1.85 OD and 3.62 OD, respectively.

B7: 371_A04 (antibody, V domains shown)
VH: EVQLLESGGGLVQPGGSLRLSCAASGFTFDSYGMNWVRQAPGKGLEWVSSINYNSGYTGYADSVKGRFTISRDNSKNTLYLQMNSLRAEDTAVYYCARAANWHDTALDYWGQGTLVTVSS
VL: DIQMTQSPSSLSASVGDRVTITCRASQSILTYLNWYQQKPGKAPKLLIYAVTSRASGVPSRFSGSGSGTDFTLTISSLQPEDFATYYCQQSYDTPLTFGGGTKVEIK
notes: Group I
With B7, the optical density in the assay with mouse ACVR2A worked out at 1.17 OD; in the assay with human ACVR2A, 1.01 OD; in assay [1], 3.53 OD.

B8: 371_B02 (antibody, V domains shown)
VH: EVQLLESGGGLVQPGGSLRLSCAASGFTFDSYGMNWVRQAPGKGLEWVSNINYNGGYTSYADSVKGRFTISRDNSKNTLYLQMNSLRAEDTAVYYCARAATWHDTHLDYWGQGTLVTVSS
VL: DIQMTQSPSSLSASVGDRVTITCRASQSILTYVNWYQQKPGKAPKLVIYAATSLASGVPSRFSGSGSGTDFTLTISSLQPEDFATYYCQQSYNNPLTFGGGTKVEIK
notes: Group II
Consider B8, for which the optical density in the assay with mouse ACVR2A was determined as 2.28 OD; in the assay with human ACVR2A it was 2 OD; in assay [1], 3.59 OD.

B9: 370_H08 (antibody, V domains shown)
VH: EVQLLESGGGLVQPGGSLRLSCAASGFTFSSYGMHWVRQAPGKGLEWVASINYNGGYTSYADSVKGRFTISRDNSKNTLYLQMNSLRAEDTAVYYCARAANWHDTHLDYWGQGTLVTVSS
VL: DIQMTQSPSSLSASVGDRVTITCRASQSILSYVNWYQQKPGKAPKLLIYAATSRHSGVPSRFSGSGSGTDFTLTISSLQPEDFATYYCQQSYSLPLTFGGGTKVEIK
notes: Group I
B9: the optical density was 3.24 OD with mouse ACVR2A, 2.94 OD in the assay with human ACVR2A and 3.65 OD in assay [1].

B10: 371_F07 (antibody, V domains shown)
VH: EVQLLESGGGLVQPGGSLRLSCAASGFTFSSYGMHWVRQAPGKGLEWVAGINYNGGYTSYADSVKGRFTISRDNSKNTLYLQMNSLRAEDTAVYYCARAATWHDTHLDYWGQGTLVTVSS
VL: DIQMTQSPSSLSASVGDRVTITCRASQSILTYLNWYQQKPGKAPKLLIYAATSLASGVPSRFSGSGSGTDFTLTISSLQPEDFATYYCQQSDSNPLTFGGGTKVEIK
notes: Group II
With B10, the optical density worked out at 2.89 OD in the assay with mouse ACVR2A, 2.78 OD with human ACVR2A and 3.34 OD in assay [1].

B11: 371_C02 (antibody, V domains shown)
VH: EVQLLESGGGLVQPGGSLRLSCAASGFTFDSYGMHWVRQAPGKGLEWVAGINYNSGYTGYADSVKGRFTISRDNSKNTLYLQMNSLRAEDTAVYYCARAATWHDTHLDYWGQGTLVTVSS
VL: DIQMTQSPSSLSASVGDRVTITCRASQSILTYVNWYQQKPGKAPKLLIYAASSLQSGVPSRFSGSGSGTDFTLTISSLQPEDFATYYCQQSYDTPLTFGGGTKVEIK
notes: Group II
B11: the optical density in the assay with mouse ACVR2A amounted to 2.88 OD; in the assay with human ACVR2A, 2.92 OD; in assay [1] it was 3.66 OD.

B12: 371_A05 (antibody, V domains shown)
VH: EVQLLESGGGLVQPGGSLRLSCAASGFTFSSYGMHWVRQAPGKGLEWVSNINYNGGYKSYADSVKGRFTISRDNSKNTLYLQMNSLRAEDTAVYYCARAATWHDTHLDYWGQGTLVTVSS
VL: DIQMTQSPSSLSASVGDRVTITCRASQSILTYLNWYQQKPGKAPKLLIYAATSRASGVPSRFSGSGSGTDFTLTISSLQPEDFATYYCQQSDNLPLTFGGGTKVEIK
notes: Group II
For the molecule B12, the figures for the optical density (with mouse ACVR2A; with human ACVR2A; in assay [1]) were 3.24 OD, 3.05 OD and 3.6 OD, respectively.

B13: 371_D05 (antibody, V domains shown)
VH: EVQLLESGGGLVQPGGSLRLSCAASGFTFDDYGMHWVRQAPGKGLEWVSGINYNGGYTSYADSVKGRFTISRDNSKNTLYLQMNSLRAEDTAVYYCARAATWHDTHLDYWGQGTLVTVSS
VL: DIQMTQSPSSLSASVGDRVTITCRASQSILTYLNWYQQKPGKAPKLLIYAASSLQSGVPSRFSGSGSGTDFTLTISSLQPEDFATYYCQQSYDSPLTFGGGTKVEIK
notes: Group II
In the case of B13, the optical density with mouse ACVR2A amounted to 3.11 OD; with human ACVR2A, 2.72 OD; in assay [1] it was 3.44 OD.
